The values that follow come from paper PMC12799932, “Development of a VHH that inhibits the binding of neuronal pentraxin 2 to a postsynaptic glutamate receptor, AMPAR” (The Journal of Biological Chemistry, 2025).

Assay [1] has as its target NP2 CC2 (construct consisting of only the CC2 region of NP2) (human) (UniProt P47972). Description: mass photometry; Two^MP, 200 nM NP, 10 mM Hepes-NaOH pH 7.4, 150 mM NaCl, without CaCl2, 25 °C.
The target is the same in assay [2]. As to the kind of experiment: mass photometry; Two^MP, 200 nM NP, 10 mM Hepes-NaOH pH 7.4, 150 mM NaCl, with 3 mM CaCl2, 25 °C.
Assay [3] deals with T1, NP2 PTX (pentraxin domain of neuronal pentraxin 2) (human) (UniProt P47972).
T1 sequence: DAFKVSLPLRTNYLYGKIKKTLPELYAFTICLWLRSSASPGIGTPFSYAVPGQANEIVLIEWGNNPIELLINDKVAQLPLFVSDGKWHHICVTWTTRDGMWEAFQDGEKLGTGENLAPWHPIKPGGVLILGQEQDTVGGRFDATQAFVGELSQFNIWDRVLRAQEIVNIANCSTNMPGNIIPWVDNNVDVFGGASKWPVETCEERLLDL
Description: SPR; competition; Biacore T200; GluA4 ATD (~800 RU) amine-coupled on CM5, 500 nM NP2 PTX mixed with 0-1000 nM VHH N1 as analyte; 10 mM Hepes-NaOH pH 7.4, 150 mM NaCl, 3 mM CaCl2, 0.005% Tween-20. On the technique in general: Surface plasmon resonance follows binding to a sensor surface in real time, without labels.

The target in assay [4] is T2, NP2 PTX D407A (human, UniProt P47972, D407A).
T2 construct: neuronal pentraxin 2 (NP2, Nptx2), human, pentraxin (PTX) domain with D407A; also called D407A_(NP2 PTX); source: Expi293 cells, secreted, purified (same procedure as NP2 PTX WT)
As to the kind of experiment: SPR; Biacore 8K; NP2 PTX single alanine mutants (~800 RU) amine-coupled on CM5, VHH N1 analyte 1.25-20 nM (D407A) or 62.5-1000 nM (V412A, W419A); 10 mM Hepes-NaOH pH 7.4, 150 mM NaCl, 0.005% Tween-20, 3 mM CaCl2. Particulars: both partners purified.

Assay [5] concerns the target T1, NP2 PTX (pentraxin domain of neuronal pentraxin 2) (human). As to the kind of experiment: SPR; Biacore 8K; NP2 N- or NP2 PTX amine-coupled on CM5, VHH N1 analyte 5-80 nM, single-cycle kinetics; 10 mM Hepes-NaOH pH 7.4, 150 mM NaCl, 0.005% Tween-20, without CaCl2, 25 °C.
The target in assay [6] is NP2 N- (neuronal pentraxin 2 in which CC1 was deleted) (human). Described as above.
Assay [7] has as its target T1, NP2 PTX (pentraxin domain of neuronal pentraxin 2) (human). Description: SPR; Biacore 8K; NP2 N- (~800 RU) or NP2 PTX (~600 RU) amine-coupled on CM5, VHH N1 analyte 1.25-20 nM, single-cycle kinetics; 10 mM Hepes-NaOH pH 7.4, 150 mM NaCl, 0.005% Tween-20, 3 mM CaCl2, 25 °C.
Assay [8] addresses NP2 N- (neuronal pentraxin 2 in which CC1 was deleted) (human). The assay is described as above.
Assay [9] addresses T3, NP1 PTX (pentraxin domain of neuronal pentraxin 1) (human, UniProt Q15818).
T3 construct: neuronal pentraxin 1 (NP1, Nptx1), human, pentraxin (PTX) domain; also called PTX domain of NP1; source: Expi293 cells, secreted, purified (Ni-NTA, SEC)
As to the kind of experiment: SPR; Biacore 8K; NP1 PTX or NPR PTX (~600 RU) amine-coupled on CM5, VHH N1 analyte 625-10,000 nM, multicycle kinetics; 10 mM Hepes-NaOH pH 7.4, 150 mM NaCl, 0.005% Tween-20, 3 mM CaCl2, 25 °C. Conditions: both partners purified.

The target of assay [10] is T4, NPR PTX (pentraxin domain of neuronal pentraxin receptor) (human, UniProt O95502).
T4 construct: neuronal pentraxin receptor (NPR, Nptxr), human, pentraxin (PTX) domain; also called PTX domain of NPR; source: Expi293 cells, secreted, purified (Ni-NTA, SEC)
The assay is described as above. Particulars: both partners purified.

Assay [11] has as its target T5, HA-NP2 (HA-tagged mouse full-length NP2) (Mus musculus, UniProt O70340).
T5 construct: source: HEK293, transfected, in fixed cells; HEK293 tSA cells, cell supernatant; not shown: HA, N-terminal, kept
As to the kind of experiment: immunostaining of cells or tissue; HEK293 cells expressing HA-tagged mouse NPs, fixed with 4% paraformaldehyde, permeabilized, stained with 1 μg/ml VHH N1, detected by rabbit anti-His; anti-HA as expression control. Particulars: one partner purified.

Assay [12] addresses NP2 N- (neuronal pentraxin 2 in which CC1 was deleted) (human). As to the kind of experiment: mass photometry; Two^MP; equal amounts of VHH N1 and NP2 N- or NP2 C95S, 200 nM each (as monomer); 10 mM Hepes-NaOH pH 7.4, 150 mM NaCl, without CaCl2, 25 °C.
The target of assay [13] is NP2 C95S (full-length NP2 with cysteine 95 mutated to serine) (human) (UniProt P47972). The description is as above.
Assay [14] has as its target T6, NP2 N- (neuronal pentraxin 2 in which CC1 was deleted) (human).
T6 chain: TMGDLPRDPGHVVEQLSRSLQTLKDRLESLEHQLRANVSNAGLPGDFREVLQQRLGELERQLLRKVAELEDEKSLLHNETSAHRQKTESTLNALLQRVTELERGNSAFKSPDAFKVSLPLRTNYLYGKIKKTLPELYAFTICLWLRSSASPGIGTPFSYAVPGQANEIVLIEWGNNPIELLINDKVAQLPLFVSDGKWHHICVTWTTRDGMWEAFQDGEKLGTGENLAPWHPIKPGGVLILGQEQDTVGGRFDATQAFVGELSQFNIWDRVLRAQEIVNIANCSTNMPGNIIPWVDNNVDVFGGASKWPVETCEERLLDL
Description: mass photometry; Two^MP, 200 nM NP, 10 mM Hepes-NaOH pH 7.4, 150 mM NaCl, with 3 mM CaCl2, 25 °C. Particulars: both partners purified.

The target in assay [15] is T6, NP2 N- (neuronal pentraxin 2 in which …). As to the kind of experiment: mass photometry; Two^MP, 200 nM NP, 10 mM Hepes-NaOH pH 7.4, 150 mM NaCl, without CaCl2, 25 °C. Particulars: both partners purified.
Assay [16] has as its target VHH N1 (alpaca). As to the kind of experiment: ITC; iTC200; 50 μM NP2 PTX from the syringe into 5 μM VHH N1 in the cell; 10 mM Hepes-NaOH pH 7.4, 150 mM NaCl, 3 mM CaCl2, 25 °C.
The target in assay [17] is VHH N1 (alpaca). As to the kind of experiment: ITC; iTC200; 50 μM NP2 PTX from the syringe into 5 μM VHH N1 in the cell; 10 mM Hepes-NaOH pH 7.4, 150 mM NaCl, 0 mM CaCl2, 25 °C. On the technique in general: In ITC the heat of successive injections is recorded.
The target of assay [18] is T7, GluA4 ATD (amino-terminal domain of human GluA4), recombinant (human, UniProt P48058 21-402).
T7 construct: AMPA-type glutamate receptor subunit GluA4, human, amino-terminal domain (ATD); source: Expi293 cells, secreted, purified (Ni-NTA, SEC)
T7 sequence (looked up): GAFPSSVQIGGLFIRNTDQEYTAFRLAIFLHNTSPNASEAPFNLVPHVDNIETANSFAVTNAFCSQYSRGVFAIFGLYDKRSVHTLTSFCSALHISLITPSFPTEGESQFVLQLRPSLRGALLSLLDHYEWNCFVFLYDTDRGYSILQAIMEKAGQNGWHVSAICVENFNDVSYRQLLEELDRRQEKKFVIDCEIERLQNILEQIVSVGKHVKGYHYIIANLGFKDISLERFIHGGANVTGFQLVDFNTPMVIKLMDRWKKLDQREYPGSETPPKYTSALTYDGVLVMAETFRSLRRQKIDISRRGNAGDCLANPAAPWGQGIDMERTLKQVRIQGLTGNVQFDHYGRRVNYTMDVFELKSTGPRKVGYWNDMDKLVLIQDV
Description: SPR; Biacore T200; GluA4 ATD (~400 RU) amine-coupled on CM5, NP2 constructs as analytes (31.25-2000 nM NP2 N- and NP2 PTX, 62.5-4000 nM NP2 CC2); 10 mM Hepes-NaOH pH 7.4, 150 mM NaCl, 0.005% Tween-20, with 3 mM CaCl2. Conditions: both partners purified.

“And” between values parts separate entries of the source, which are not always exact repeats. Equal values may be shown once.

T3 sequence (Q15818 226-428): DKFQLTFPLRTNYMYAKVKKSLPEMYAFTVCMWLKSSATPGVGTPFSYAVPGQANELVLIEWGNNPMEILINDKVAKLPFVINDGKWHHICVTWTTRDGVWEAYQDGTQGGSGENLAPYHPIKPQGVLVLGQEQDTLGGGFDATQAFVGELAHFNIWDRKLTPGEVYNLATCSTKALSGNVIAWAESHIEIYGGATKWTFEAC
T4 sequence (O95502 292-494): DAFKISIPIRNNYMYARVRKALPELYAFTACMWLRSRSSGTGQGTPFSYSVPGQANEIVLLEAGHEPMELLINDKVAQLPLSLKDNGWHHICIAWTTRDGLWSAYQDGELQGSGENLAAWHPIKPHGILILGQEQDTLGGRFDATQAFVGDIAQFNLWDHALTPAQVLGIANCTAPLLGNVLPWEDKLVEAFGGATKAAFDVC

For orientation: stoichiometry N means the number of molecules, sites or subunits per partner or assembly. Regarding “NP2 CC2 (construct consisting of only the CC2 region of NP2) (from UniProt P47972 16-431) (domain or fragment)”, the stoichiometry N in assay [1] and in [2] was > 3 throughout.

B1: VHH N1 (VHH)
VHH: QLQLVESGGGLVQAGDSLKLSCIDSGSTFNLYAMGWFRQAPGKEREFVASISRGGGSSYYADSQLKGRFTISRDNAKNTVYLQMNSLKPEDTAVYYCNARAGRYDYWGQGTQVTVSS
notes: selected by phage display from an immune library of an alpaca immunized with NP2 N-; Cloned into the pRA2 vector with a C-terminal His-tag; detected by anti-His in the cell staining; also called N1 VHH; VHH for NP2; source: E. coli BL21 (DE3), purified (Ni-NTA, SEC); not shown: His-tag, C-terminal, kept
As usually defined, the IC50 is the concentration needed to halve the response being measured. Read a high IC50 as lower potency. As a reminder, the Kd is the constant that tells how readily two partners part at equilibrium. The term koff denotes the rate constant with which the complex falls apart. A low value points to a long-lived complex. As a reminder, the kon is the second-order rate constant of association. B1: in [3], the IC50 amounted to 216 nM. The “fold change of affinity against NP2 PTX WT” value in [4] was 3 times lower. The Kd in assay [5] was 11.6 nM; in [6] it was 33.5 nM; in assay [7], 1.14 nM; in [8], 1.41 nM. Moreover, the koff in [5] came to 0.0249 s⁻¹; in assay [6], 0.00514 s⁻¹; in assay [7], 0.00208 s⁻¹; in [8], 0.00524 s⁻¹. Besides, the kon in assay [5] was 2.21e+06 M⁻¹ s⁻¹; in assay [6] it was 156000 M⁻¹ s⁻¹; in assay [7], 1.92e+06 M⁻¹ s⁻¹; in assay [8], 3.7e+06 M⁻¹ s⁻¹. For the same molecule, the results for the binding result in assay [9], in [10] and in assay [11] were “no binding (tested: 10,000 nM)”, “no binding (tested: 10,000 nM)” and “binds”, respectively. Also, the stoichiometry N in assay [12] and in assay [13] was 1 in each case.

B2: NP2 N- (neuronal pentraxin 2 in which CC1 was deleted) (domain or fragment)
chain: TMGDLPRDPGHVVEQLSRSLQTLKDRLESLEHQLRANVSNAGLPGDFREVLQQRLGELERQLLRKVAELEDEKSLLHNETSAHRQKTESTLNALLQRVTELERGNSAFKSPDAFKVSLPLRTNYLYGKIKKTLPELYAFTICLWLRSSASPGIGTPFSYAVPGQANEIVLIEWGNNPIELLINDKVAQLPLFVSDGKWHHICVTWTTRDGMWEAFQDGEKLGTGENLAPWHPIKPGGVLILGQEQDTVGGRFDATQAFVGELSQFNIWDRVLRAQEIVNIANCSTNMPGNIIPWVDNNVDVFGGASKWPVETCEERLLDL
modifications: Exact start is not in the text (Figures 1B and S1); it is set by convention just after CC1 and its Cys95, keeping CC2, PTX and the native C-terminus. Human is inferred from the D407/V412/W419 …
On to B2, for which the “stoichiometry N” value was 9 and 12 in assay [14]; 6 and 3 in [15].

B3: NP2 PTX (pentraxin domain of neuronal pentraxin 2) (domain or fragment, human)
chain: DAFKVSLPLRTNYLYGKIKKTLPELYAFTICLWLRSSASPGIGTPFSYAVPGQANEIVLIEWGNNPIELLINDKVAQLPLFVSDGKWHHICVTWTTRDGMWEAFQDGEKLGTGENLAPWHPIKPGGVLILGQEQDTVGGRFDATQAFVGELSQFNIWDRVLRAQEIVNIANCSTNMPGNIIPWVDNNVDVFGGASKWPVETCEERLLDL
notes: neuronal pentraxin 2 (NP2, Nptx2), human, pentraxin (PTX) domain; also called NP2 PTX WT; PTX domain of NP2; source: Expi293 cells, secreted, purified (Ni-NTA, SEC)
In the case of B3, in assay [16], the equilibrium dissociation constant (Kd) stood at 19.7 nM, the dH was -7.36 kcal/mol and the stoichiometry N came to 0.913. Besides, in assay [17], the Kd is 57.5 nM, the dH is -7.53 kcal/mol and the stoichiometry N is 0.781. Also, in assay [18], the Kd was found to be 13600 nM.
